From paper PMC5893371 (Nature medicine, 2018)
Where two headings read alike, the source gives them in different places. No end group written: not given here.

Columns and labels:
biotinylated peptide 21 = target: T1, biotinylated peptide 21 (Plasmodium falciparum, also: biotin, position not given here); assay: BLI
T1 chain: NPDPNANPNVDPNAN

PfCSP peptide 25 [1] = target: T2, PfCSP peptide 25 (Plasmodium falciparum, UniProt Q7K740, position 102 (from Pro to Val)); assay: ELISA
T2 chain: NVDPNANPNVDPNAN

[2] = target: recombinant PfCSP (rPfCSP), Plasmodium falciparum circumsporozoite protein residues 21-375 (Plasmodium falciparum 3D7 (clone of …, UniProt Q7K740)); assay: ITC
PfCSP peptide 25 [3] = target: T2, PfCSP peptide 25; assay: crystal structure
PfCSP peptide 20 [4] = target: T3, PfCSP peptide 20 (Plasmodium falciparum); assay: crystal structure
T3 chain: PADGNPDPNANPNVD

PfCSP peptide 25 [5] = target: T2, PfCSP peptide 25; assay: crystal structure
PfCSP peptide 20 [6] = target: T3, PfCSP peptide 20; assay: crystal structure

B1: mAb CIS43 (antibody, V domains shown)
VH: QVQLVQSGAEVKKPGASVKVSCKASGYTFTSYAIHWVRQAPGQRLEWMGWIKAGNGNTRYSQKFQDRVTITRDTSTTTAYMELSSLRSEDTAVYYCALLTVLTPDDAFDIWGQGTMVTVSS
VL: not shown
- Kd (biotinylated peptide 21): < 0.001 nM
- binding result (PfCSP peptide 25 [1]): binds
- KD of the first binding event [2]: 7.9 nM
- KD of the second binding event [2]: 42 nM

B2: CIS43 Fab (Fab, V domains shown)
VH: B1 VH
VL: not shown
- KD of the first binding event [2]: 16 nM
- KD of the second binding event [2]: 250 nM
- binding result (PfCSP peptide 25 [3]): binds
- binding result (PfCSP peptide 20 [4]): binds

B3: mAb CIS42 (antibody, V domains shown)
VH: QVQLVQSGSELKKPGASVKVSCKTSGYTFTTYAMNWVRQAPGQGLEWMGWINTNTGNPTYAPGFTGRFVFSFDTSVSTAYLQISSLKAEDTAVYYCARVYSYGVPFDYWGQGTLVTVSS
VL: QSVLTQPASVSGSPGQSITISCTATSSNVGSFNLVSWYQHHPGKAPKLIIHEVSKRPSGASNRFSGSKSGNTASLTISGLQAEDEADYYCCSYVGSDTWVFGGGTKLTV
- Kd [2]: 51 nM
- stoichiometry N [2]: 7

B4: CIS42 Fab (Fab, V domains shown)
VH: B3 VH
VL: B3 VL
- binding result (PfCSP peptide 25 [5]): binds
- binding result (PfCSP peptide 20 [6]): binds
